Assay results: paper PMC8373067, “The RGG domain in the C-terminus of the DEAD box helicases Dbp2 and Ded1 is necessary for G-quadruplex destabilization”

Key:
[1] = molecular target: T1, Dbp2 WT (Schizosaccharomyces pombe, UniProt P24782 1-550); assay: EMSA; 10 nM protein, Na+; EMSA: 0.4 nM 32P-oligo (0.2 nM in Fig S4), 50 mM Tris (pH not stated), 50 mM KCl (DNA) or NaCl (RNA), 2 mM MgCl2, 2 mM DTT, 0.25 mg/ml BSA, 10 min at 30 C; details: protein: recombinant, tags: C-terminal poly-His, label: 5'-32P
[2] = molecular target: T2, Ded1 WT (Schizosaccharomyces pombe, UniProt O13370 1-636); assay: as above; details: protein: recombinant, tags: C-terminal poly-His, label: 5'-32P
[3] = molecular target: T3, Oga1 WT (Schizosaccharomyces pombe, UniProt O42914 1-284); assay: as above; details: protein: recombinant, tags: C-terminal poly-His, label: 5'-32P
T3 sequence: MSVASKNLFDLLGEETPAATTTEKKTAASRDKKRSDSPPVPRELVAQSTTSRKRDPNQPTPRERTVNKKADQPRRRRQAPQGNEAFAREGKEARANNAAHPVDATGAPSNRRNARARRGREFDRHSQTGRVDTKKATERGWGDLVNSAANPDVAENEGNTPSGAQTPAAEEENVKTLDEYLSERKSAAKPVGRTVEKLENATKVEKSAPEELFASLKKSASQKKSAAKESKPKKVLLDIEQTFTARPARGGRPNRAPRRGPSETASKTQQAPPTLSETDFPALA

[4] = molecular target: T1, Dbp2 WT; assay: EMSA; up to 10 nM protein; EMSA: 0.4 nM 32P-oligo (0.2 nM in Fig S4), 50 mM Tris (pH not stated), 50 mM KCl (DNA) or NaCl (RNA), 2 mM MgCl2, 2 mM DTT, 0.25 mg/ml BSA, 10 min at 30 C; details: protein: recombinant; tags: C-terminal poly-His; label: 5'-32P; single strand
[5] = molecular target: T2, Ded1 WT; assay: as above; details: protein: recombinant; tags: C-terminal poly-His; label: 5'-32P; single strand
[6] = molecular target: T3, Oga1 WT; assay: as above; details: protein: recombinant; tags: C-terminal poly-His; label: 5'-32P; single strand
[7] = molecular target: T1, Dbp2 WT; assay: EMSA; K+, 2 mM Mg2+; EMSA: 0.4 nM 32P-oligo (0.2 nM in Fig S4), 50 mM Tris (pH not stated), 50 mM KCl (DNA) or NaCl (RNA), 2 mM MgCl2, 2 mM DTT, 0.25 mg/ml BSA, 10 min at 30 C; details: protein: recombinant; tags: C-terminal poly-His; label: 5'-32P; parallel G4, 5' A10 overhang
[8] = molecular target: T2, Ded1 WT; assay: as above; details: protein: recombinant; tags: C-terminal poly-His; label: 5'-32P; parallel G4, 5' A10 overhang
[9] = parallel G4, 5' U5 and 3' U5 overhangs

T1 sequence (P24782 whole entry): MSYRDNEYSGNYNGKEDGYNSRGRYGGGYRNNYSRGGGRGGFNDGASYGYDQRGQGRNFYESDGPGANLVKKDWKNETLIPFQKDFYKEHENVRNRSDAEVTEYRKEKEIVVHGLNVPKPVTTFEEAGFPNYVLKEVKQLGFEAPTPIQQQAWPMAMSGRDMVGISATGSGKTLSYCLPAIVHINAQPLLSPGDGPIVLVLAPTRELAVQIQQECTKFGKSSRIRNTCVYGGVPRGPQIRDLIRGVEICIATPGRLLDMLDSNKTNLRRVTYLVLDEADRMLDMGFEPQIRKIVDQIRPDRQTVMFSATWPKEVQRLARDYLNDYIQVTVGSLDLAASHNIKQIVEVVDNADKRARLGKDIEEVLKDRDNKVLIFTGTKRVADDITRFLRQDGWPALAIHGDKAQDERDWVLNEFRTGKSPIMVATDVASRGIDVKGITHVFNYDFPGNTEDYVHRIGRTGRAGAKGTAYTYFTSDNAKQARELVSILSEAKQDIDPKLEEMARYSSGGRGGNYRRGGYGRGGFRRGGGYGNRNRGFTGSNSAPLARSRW
T2 sequence (O13370 whole entry): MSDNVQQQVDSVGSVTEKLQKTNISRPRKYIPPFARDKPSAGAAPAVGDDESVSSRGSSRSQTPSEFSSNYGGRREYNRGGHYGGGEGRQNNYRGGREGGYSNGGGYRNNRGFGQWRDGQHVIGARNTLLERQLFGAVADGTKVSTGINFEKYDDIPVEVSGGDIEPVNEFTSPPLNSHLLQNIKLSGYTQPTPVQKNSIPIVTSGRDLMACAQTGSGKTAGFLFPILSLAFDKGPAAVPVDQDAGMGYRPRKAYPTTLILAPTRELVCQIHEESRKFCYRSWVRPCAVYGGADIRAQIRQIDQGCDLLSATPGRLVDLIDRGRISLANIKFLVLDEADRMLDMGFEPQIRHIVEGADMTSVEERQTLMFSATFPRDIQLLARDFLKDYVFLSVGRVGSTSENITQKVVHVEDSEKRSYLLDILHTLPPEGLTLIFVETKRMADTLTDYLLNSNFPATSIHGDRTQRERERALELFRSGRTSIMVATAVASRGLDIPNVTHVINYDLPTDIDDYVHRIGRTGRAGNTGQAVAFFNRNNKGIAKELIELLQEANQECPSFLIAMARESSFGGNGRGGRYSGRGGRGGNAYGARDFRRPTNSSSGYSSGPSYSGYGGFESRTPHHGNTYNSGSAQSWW

Binder: UUUUUGGGGAAGGGUGGGGCAUGUUAUGGGUUUUU (structured_RNA) [5'-RNA-G4-3' (5U-G4-5U RNA)]
- binding result [1, 9]: binds
- binding result [2, 9]: binds
- binding result [3, 9]: binds

Binder: AAAAAAAAAAGGTGCGAGGTGAGTGTGGAGTGAGG (ssDNA) [10A-rDNA scr]
- binding result [4]: no binding
- binding result [5]: no binding
- binding result [6]: no binding

Binder: AAAAAAAAAAGGGGAAGGGTGGGGCATGTTATGGG (structured_DNA) [10A-rDNA G4]
- Kd [7]: 3.84 ± 1.06 nM
- Kd [8]: 6.59 ± 0.1 nM

Binder: AAAAAAAAAAGGGGAAGGGUGGGGCAUGUUAUGGG (structured_RNA) [5'-RNA-G4 (10A-G4 RNA)]
- binding result [1]: binds
- binding result [2]: binds
- binding result [3]: binds
